Experimental findings from patent US20250262210A1 (TRUSTEES OF COLUMBIA UNIVERSITY IN THE CITY OF NEW YORK, published 2025) are described below.

Test [1] deals with T1, HECTD3 (human, UniProt Q5T447 2-861, limits assumed).
T1 sequence (looked up): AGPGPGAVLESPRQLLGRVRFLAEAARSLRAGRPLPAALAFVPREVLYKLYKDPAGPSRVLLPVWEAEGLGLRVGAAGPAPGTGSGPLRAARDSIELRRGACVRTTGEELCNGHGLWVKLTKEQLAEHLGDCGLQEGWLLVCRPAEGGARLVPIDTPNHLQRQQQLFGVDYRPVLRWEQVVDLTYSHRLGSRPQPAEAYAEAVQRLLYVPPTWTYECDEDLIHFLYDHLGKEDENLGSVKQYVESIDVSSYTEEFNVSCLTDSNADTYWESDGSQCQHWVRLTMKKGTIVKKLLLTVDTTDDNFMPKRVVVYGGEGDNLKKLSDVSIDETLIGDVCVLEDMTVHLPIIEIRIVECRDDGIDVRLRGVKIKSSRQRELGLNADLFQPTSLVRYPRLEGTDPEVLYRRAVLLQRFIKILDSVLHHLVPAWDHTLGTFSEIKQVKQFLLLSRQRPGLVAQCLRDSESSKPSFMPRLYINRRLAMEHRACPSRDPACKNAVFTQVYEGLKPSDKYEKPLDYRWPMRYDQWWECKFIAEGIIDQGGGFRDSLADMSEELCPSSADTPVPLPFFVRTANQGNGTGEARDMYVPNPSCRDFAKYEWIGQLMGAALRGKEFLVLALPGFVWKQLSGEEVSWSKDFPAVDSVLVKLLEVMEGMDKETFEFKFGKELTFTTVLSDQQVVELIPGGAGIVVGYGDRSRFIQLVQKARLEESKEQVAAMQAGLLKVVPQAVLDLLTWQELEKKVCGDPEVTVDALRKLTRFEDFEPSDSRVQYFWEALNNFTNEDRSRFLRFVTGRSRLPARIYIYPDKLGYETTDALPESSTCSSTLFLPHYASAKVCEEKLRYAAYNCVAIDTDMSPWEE
Put plainly: IP/MS, LZTR1 R810W-FLAG, U87. Put shortly: (§1)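 Gel slices were reduced with 5 mM DTT, alkylated with 11 mM IAA and digested overnight at 37° C. with trypsin. Peptides were analysed on an Orbitrap Fusion Tribrid by LC-MS/MS.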

The target of test [2] is T2, CTDP1 (human, UniProt Q9Y5B0 1-961, limits assumed).
T2 sequence (looked up): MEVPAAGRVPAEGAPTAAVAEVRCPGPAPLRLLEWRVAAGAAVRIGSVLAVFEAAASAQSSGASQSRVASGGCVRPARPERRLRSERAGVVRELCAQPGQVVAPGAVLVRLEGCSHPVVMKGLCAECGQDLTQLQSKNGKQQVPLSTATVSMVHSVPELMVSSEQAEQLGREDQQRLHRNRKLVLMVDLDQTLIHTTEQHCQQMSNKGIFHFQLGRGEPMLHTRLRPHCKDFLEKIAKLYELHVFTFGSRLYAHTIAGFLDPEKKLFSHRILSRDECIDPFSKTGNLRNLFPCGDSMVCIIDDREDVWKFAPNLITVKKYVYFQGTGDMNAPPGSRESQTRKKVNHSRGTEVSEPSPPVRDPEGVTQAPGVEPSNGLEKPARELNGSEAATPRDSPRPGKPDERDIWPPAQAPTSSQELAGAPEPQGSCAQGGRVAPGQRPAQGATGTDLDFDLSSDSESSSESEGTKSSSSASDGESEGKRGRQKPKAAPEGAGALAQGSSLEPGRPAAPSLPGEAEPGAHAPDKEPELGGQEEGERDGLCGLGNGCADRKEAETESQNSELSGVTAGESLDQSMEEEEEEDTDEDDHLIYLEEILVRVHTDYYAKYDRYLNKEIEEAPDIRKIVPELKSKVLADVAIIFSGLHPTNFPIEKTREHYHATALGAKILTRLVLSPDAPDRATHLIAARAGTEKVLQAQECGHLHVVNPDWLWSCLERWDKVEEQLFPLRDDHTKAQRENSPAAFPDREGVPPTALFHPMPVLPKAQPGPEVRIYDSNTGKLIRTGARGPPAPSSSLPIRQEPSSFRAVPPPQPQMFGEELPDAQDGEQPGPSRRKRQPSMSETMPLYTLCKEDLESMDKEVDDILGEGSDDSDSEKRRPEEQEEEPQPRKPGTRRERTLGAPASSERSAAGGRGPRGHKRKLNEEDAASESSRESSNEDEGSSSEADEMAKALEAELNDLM
Briefly: IP/MS, LZTR1 R810W-FLAG, U87. Put shortly: as §1

B1: LZTR1 R810W-FLAG (other, human, UniProt Q8N653 1-840, looked up)
chain: MAGPGSTGGQIGAAALAGGARSKVAPSVDFDHSCSDSVEYLTLNFGPFETVHRWRRLPPCDEFVGARRSKHTVVAYKDAIYVFGGDNGKTMLNDLLRFDVKDCSWCRAFTTGTPPAPRYHHSAVVYGSSMFVFGGYTGDIYSNSNLKNKNDLFEYKFATGQWTEWKIEGRLPVARSAHGATVYSDKLWIFAGYDGNARLNDMWTIGLQDRELTCWEEVAQSGEIPPSCCNFPVAVCRDKMFVFSGQSGAKITNNLFQFEFKDKTWTRIPTEHLLRGSPPPPQRRYGHTMVAFDRHLYVFGGAADNTLPNELHCYDVDFQTWEVVQPSSDSEVGGAEVPERACASEEVPTLTYEERVGFKKSRDVFGLDFGTTSAKQPTQPASELPSGRLFHAAAVISDAMYIFGGTVDNNIRSGEMYRFQFSCYPKCTLHEDYGRLWESRQFCDVEFVLGEKEECVQGHVAIVTARSRWLRRKITQARERLAQKLEQEAAPVPREAPGVAAGGARPPLLHVAIREAEARPFEVLMQFLYTDKIKYPRKGHVEDVLLIMDVYKLALSFQLCRLEQLCRQYIEASVDLQNVLVVCESAARLQLSQLKEHCLNFVVKESHFNQVIMMKEFERLSSPLIVEIVRRKQQPPPRTPLDQPVDIGTSLIQDMKAYLEGAGAEFCDITLLLDGHPRPAHKAILAARSSYFEAMFRSFMPEDGQVNISIGEMVPSRQAFESMLRYIYYGEVNMPPEDSLYLFAAPYYYGFYNNRLQAYCKQNLEMNVTVQNVLQILEAADKTQALDMKRHCLHIIVHQFTKVSKLPTLWSLSQQLLLDIIDSLASHISDKQCAELGADI
notes: Stably expressed in U87 cells by lentivirus; also called LZTR1-FLAG-R810W; LZTR1 RW; not shown: FLAG tag
As for B1, the binding result in test [1] and in test [2] was “binds” in each case.
